Laboratory results: article PMC10245805 (bioRxiv, 2024)

Molecular target: the molecule itself
Experiment: cryo-EM structure

Protein	stoichiometry N
wild-type (WT) human asparagine synthetase (ASNS) (enzyme, UniProt P08243 1-561, looked up) MCGIWALFGSDDCLSVQCLSAMKIAHRGPDAFRFENVNGYTNCCFGFHRLAVVDPLFGMQPIRVKKYPYLWLCYNGEIYNHKKMQQHFEFEYQTKVDGEIILHLYDKGGIEQTICMLDGVFAFVLLDTANKKVFLGRDTYGVRPLFKAMTEDGFLAVCSEAKGLVTLKHSATPFLKVEPFLPGHYEVLDLKPNGKVASVEMVKYHHCRDVPLHALYDNVEKLFPGFEIETVKNNLRILFNNAVKKRLMTDRRIGCLLSGGLDSSLVAATLLKQLKEAQVQYPLQTFAIGMEDSPDLLAARKVADHIGSEHYEVLFNSEEGIQALDEVIFSLETYDITTVRASVGMYLISKYIRKNTDSVVIFSGEGSDELTQGYIYFHKAPSPEKAEEESERLLRELYLFDVLRADRTTAAHGLELRVPFLDHRFSSYYLSLPPEMRIPKNGIEKHLLRETFEDSNLIPKEILWRPKEAFSDGITSVKNSWFKILQEYVEHQVDDAMMANAAQKFPFNTPKTKEGYYYRQVFERHYPGRADWLSHYWMPKWINATDPSARTLTHYKSAVKA	2
R142I variant of human asparagine synthetase (ASNS) (enzyme, UniProt P08243 1-561, looked up) MCGIWALFGSDDCLSVQCLSAMKIAHRGPDAFRFENVNGYTNCCFGFHRLAVVDPLFGMQPIRVKKYPYLWLCYNGEIYNHKKMQQHFEFEYQTKVDGEIILHLYDKGGIEQTICMLDGVFAFVLLDTANKKVFLGRDTYGVIPLFKAMTEDGFLAVCSEAKGLVTLKHSATPFLKVEPFLPGHYEVLDLKPNGKVASVEMVKYHHCRDVPLHALYDNVEKLFPGFEIETVKNNLRILFNNAVKKRLMTDRRIGCLLSGGLDSSLVAATLLKQLKEAQVQYPLQTFAIGMEDSPDLLAARKVADHIGSEHYEVLFNSEEGIQALDEVIFSLETYDITTVRASVGMYLISKYIRKNTDSVVIFSGEGSDELTQGYIYFHKAPSPEKAEEESERLLRELYLFDVLRADRTTAAHGLELRVPFLDHRFSSYYLSLPPEMRIPKNGIEKHLLRETFEDSNLIPKEILWRPKEAFSDGITSVKNSWFKILQEYVEHQVDDAMMANAAQKFPFNTPKTKEGYYYRQVFERHYPGRADWLSHYWMPKWINATDPSARTLTHYKSAVKA	2
